21 molecules from patent US20250049896A1 (Regeneron, published 2025) can be followed below.

The test deals with T1, Hmm-hTFRC (REGN2431), monomeric human transferrin receptor ectodomain with N-terminal hexahistidine-myc-myc … (human, UniProt P02786 89-760).
T1 construct: also called hmm.hTfR(C89-F763); His-myc-myc-hTFRC ecto
Nature of the test: blocking ELISA, supernatant; Hmm-hTFRC binding to immobilized human holo-Tf. The protocol: In the blocking assay, the anti-human Transferrin goat IgG polyclonal antibody (anti-hTf pAb) was passively absorbed at a concentration of 2 micrograms/mL in PBS on a 96-well microtiter plate overnight at 4° C. […] To the same plate, human holo-Tf was then added at a concentration of 1 micrograms/mL in PBS+0.5% BSA for 2 hours at room temperature. […] After a 1-hour incubation, the mixtures were transferred to the human holo-Tf microtiter plates. […] The plates were developed using TMB substrate solution according to the manufacturer's recommended procedure and absorbance at 450 nm was measured on a Victor™ Multilabel Plate Reader.
The ability of the anti-TfR antibody to block human TFRC binding to human holo-Tf was evaluated using an ELISA-based blocking assay.
In general terms: An ELISA detects its analyte on a solid surface through an enzyme-linked reagent.

Positions count from the first letter of the chain named.

T1 sequence (P02786 other isoform, or with tags, fused parts or gaps): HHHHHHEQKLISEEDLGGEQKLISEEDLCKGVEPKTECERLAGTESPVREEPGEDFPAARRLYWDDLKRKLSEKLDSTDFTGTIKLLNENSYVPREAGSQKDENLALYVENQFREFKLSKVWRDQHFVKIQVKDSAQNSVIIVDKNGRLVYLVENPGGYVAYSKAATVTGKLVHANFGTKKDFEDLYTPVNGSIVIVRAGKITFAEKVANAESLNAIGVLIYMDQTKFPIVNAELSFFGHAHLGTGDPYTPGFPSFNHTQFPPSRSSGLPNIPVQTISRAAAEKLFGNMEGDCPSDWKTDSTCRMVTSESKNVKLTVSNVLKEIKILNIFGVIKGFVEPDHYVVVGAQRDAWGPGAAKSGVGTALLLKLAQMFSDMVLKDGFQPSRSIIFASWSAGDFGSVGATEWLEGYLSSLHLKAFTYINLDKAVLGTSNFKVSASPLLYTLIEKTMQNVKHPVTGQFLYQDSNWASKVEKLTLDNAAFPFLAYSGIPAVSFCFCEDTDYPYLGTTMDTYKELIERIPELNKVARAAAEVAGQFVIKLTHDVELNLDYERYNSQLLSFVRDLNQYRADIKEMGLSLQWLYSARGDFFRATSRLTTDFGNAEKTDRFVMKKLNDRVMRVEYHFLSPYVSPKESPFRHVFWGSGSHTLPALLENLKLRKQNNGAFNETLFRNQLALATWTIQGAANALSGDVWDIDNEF

B1: 31874B Fab (Fab, V domains shown)
VH: EVQLVESGGGLVQPGGSLRLSCAASGFAFSSYAMTWVRQAPGKGLEWVSVISGTGGSTYYADSVKGRFTISRDNSKNTLYLQMNSLRAEDTAVYYCAKGGAARRMEYFQYWGQGTLVTVSS
VL: DIQMTQSPSSLSASVGDRVTITCRASQGISNYLAWYQQKPGKVPNLLIYAASTLQSGVPSRFSGSGSGTDFTLTISSLQPEDVATYYCQKYNSAPLTFGGGTKVEIKR
notes: CHO supernatant
Turning to B1, the “% Blocking” value stood at 16%.

B2: 69263 Fab (Fab, V domains shown)
VH: EVQLVESGGGLVQPGRSLRLSCAVSGFTFDDYAMHWVRQAPGKGLEWVSGISWNSGTRGYADSVKGRFTISRDNAKNSLYLQMNSLRGEDTALYYCVKDITISPNYYGMDVWGQGTTVTVSS
VL: B1 VL with G28D, N31H, L33S, V43L, T72S, I75T, A94V
notes: CHO supernatant
As for B2, the “% Blocking” value was 14%.

B3: 69331 Fab (Fab, V domains shown)
VH: QVQLVESGGGVVQPGRSLRLSCIASGFTFSVYGIHWVRQAPGKGLEWMAVISHDGNIKHYADSVKGRFTISRDNSKNTLYLQINSLRTEDTAVYYCAKDTWNSLDTFDIWGQGTMVTVSS
VL: B1 VL with M4L, R24W, N31S, V43A, N45K, D70E, V83F, K90Q, Y91L, A94Y
notes: CHO supernatant
In the case of B3, the “% Blocking” value is 9%.

B4: 69326 scFv (VK-VH) (scFv)
scFv: EIVMTQSPATLSVSPGERATLSCRASQSVSSNFAWYQQKPGQAPRLLIYSASSRATGIPVRFSGSGSGTEFTLTISSLQSEDFAVYYCQQYNIWPRTFGQGTKVEIKGGGGSGGGGSGGGGSEVQLVESGGGLVQPGGSLRLSCAVSGFIFSSYEMNWVRQAPGKGLEWVSYISSSGSTIFYADSVKGRFTISRDNAKNSLYLQMNSLRAEDTAVYYCVSGVVLFDVWGQGTMVTVSS
notes: CHO supernatant; Vk-3xG4S-Vh
For B4, the “% Blocking” value turned out to be 12%.

B5: 69263 scFv (VK-VH) (scFv)
scFv: DIQMTQSPSSLSASVGDRVTITCRASQDISHYSAWYQQKPGKLPNLLIYAASTLQSGVPSRFSGSGSGTDFSLTTSSLQPEDVATYYCQKYNSVPLTFGGGTKVEIKGGGGSGGGGSGGGGSEVQLVESGGGLVQPGRSLRLSCAVSGFTFDDYAMHWVRQAPGKGLEWVSGISWNSGTRGYADSVKGRFTISRDNAKNSLYLQMNSLRGEDTALYYCVKDITISPNYYGMDVWGQGTTVTVSS
notes: CHO supernatant; Vk-3xG4S-Vh
Take B5: the “% Blocking” value came to 4%.

B6: 69329 scFv (VH-VK) (scFv)
chain: EVQLVESGGGLVQPGGSLRLSCAASGFTFSNYWMTWVRQAPGKGLEWVANIKEDGSEKDYVDSVKGRFTISRDNAKNSLYLQMNSLRGEDTAVYYCARDGEQLVDYYYYYVMDVWGQGTTVTVSSDIQMTQSPSSVSASVGDRVTITCRASQGISSWLAWYQQKPGKAPKLLIYAASSLQSGVPSRFSGSGSGTDFTLTISSLQPEDFATYYCQKANSFPYTFGQGTKLEIK
In the case of B6, the “% Blocking” value worked out at 25%.

B7: 69263 scFv (VH-VK) (scFv)
chain: EVQLVESGGGLVQPGRSLRLSCAVSGFTFDDYAMHWVRQAPGKGLEWVSGISWNSGTRGYADSVKGRFTISRDNAKNSLYLQMNSLRGEDTALYYCVKDITISPNYYGMDVWGQGTTVTVSSDIQMTQSPSSLSASVGDRVTITCRASQDISHYSAWYQQKPGKLPNLLIYAASTLQSGVPSRFSGSGSGTDFSLTTSSLQPEDVATYYCQKYNSVPLTFGGGTKVEIK
As to B7, the “% Blocking” value was found to be 14%.

B8: 69326 scFv (VH-VK) (scFv)
chain: EVQLVESGGGLVQPGGSLRLSCAVSGFIFSSYEMNWVRQAPGKGLEWVSYISSSGSTIFYADSVKGRFTISRDNAKNSLYLQMNSLRAEDTAVYYCVSGVVLFDVWGQGTMVTVSSEIVMTQSPATLSVSPGERATLSCRASQSVSSNFAWYQQKPGQAPRLLIYSASSRATGIPVRFSGSGSGTEFTLTISSLQSEDFAVYYCQQYNIWPRTFGQGTKVEIK
For B8, the “% Blocking” value amounted to 18%.

B9: 69326 Fab (Fab, V domains shown)
VH: EVQLVESGGGLVQPGGSLRLSCAVSGFIFSSYEMNWVRQAPGKGLEWVSYISSSGSTIFYADSVKGRFTISRDNAKNSLYLQMNSLRAEDTAVYYCVSGVVLFDVWGQGTMVTVSS
VL: EIVMTQSPATLSVSPGERATLSCRASQSVSSNFAWYQQKPGQAPRLLIYSASSRATGIPVRFSGSGSGTEFTLTISSLQSEDFAVYYCQQYNIWPRTFGQGTKVEIKR
notes: CHO supernatant
Regarding B9, the “% Blocking” value was -2%.

B10: 69307 Fab (Fab, V domains shown)
VH: EVQLVESGGGLVQPGGSLRLSCTASGFTFSNYWMTWVRQAPGKGLEWVANIKEDGSEKEYVDSVKGRFTISRDNAKNSLYLQMNSLRGEDTAVYYCARDGEQLVDYYYYYVMDVWGQGTTVTVSS
VL: DIQMTQSPSSVSASVGDRVTITCRASQGISSWLAWYQQKPGKAPKLLIYAASSLQSGVPSRFSGSGSGTDFTLTISSLQPEDFATYYCQKADSLPYAFGQGTKLEIKR
notes: CHO supernatant
Regarding B10, the “% Blocking” value amounted to 12%.

B11: 69329 Fab (Fab, V domains shown)
VH: B10 VH with T23A, E59D
VL: B10 VL with D92N, L94F, A97T
notes: CHO supernatant
Take B11: the “% Blocking” value amounted to 8%.

B12: 69305 Fab (Fab, V domains shown)
VH: QVQLVESGGGVVQPGRSLRLSCAASGFTFSSYGMHWVRQAPGKGLEWVAVIWYDGSNKYYADSVKGRFTISRDISKNTLYLQMNSLRAEDTAVYYCAGQLDLFFDYWGQGTLVTVSS
VL: DIQMTQSPSSLSASVGDRVTITCRASQSIDRYLNWYRQKPGKAPKLLIYTTSSLQSGVPSRFSGSGSGTDFTLTLSSLQPEDFATYYCQQSYSPPLTFGGGTKVEIKR
notes: CHO supernatant
As to B12, the “% Blocking” value came to 3%.

B13: 69305 scFv (VK-VH) (scFv)
scFv: DIQMTQSPSSLSASVGDRVTITCRASQSIDRYLNWYRQKPGKAPKLLIYTTSSLQSGVPSRFSGSGSGTDFTLTLSSLQPEDFATYYCQQSYSPPLTFGGGTKVEIKGGGGSGGGGSGGGGSQVQLVESGGGVVQPGRSLRLSCAASGFTFSSYGMHWVRQAPGKGLEWVAVIWYDGSNKYYADSVKGRFTISRDISKNTLYLQMNSLRAEDTAVYYCAGQLDLFFDYWGQGTLVTVSS
notes: CHO supernatant; Vk-3xG4S-Vh
As to B13, the “% Blocking” value amounted to 5%.

B14: 69323 Fab (Fab, V domains shown)
VH: EVQLVESGGGLVQPGRSLRLSCAASGFTFDDYAMHWVRQAPGKGLEWVSGISWNSGYIGYADSVKGRFTISRDNAENSLHLQMNSLRAEDTALYYCARGGSTLVRGVKGGYYGMDVWGQGTTVTVSS
VL: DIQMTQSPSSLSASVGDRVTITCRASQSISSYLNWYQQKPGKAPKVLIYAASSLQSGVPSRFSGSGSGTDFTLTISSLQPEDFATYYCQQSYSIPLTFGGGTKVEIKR
notes: CHO supernatant
Consider B14, for which the “% Blocking” value was found to be 12%.

B15: 69261 Fab (Fab, V domains shown)
VH: QVQLVESGGGLVKPGGSLRLSCAASGFTFSVYYMNWIRQAPGKGLEWVSYISSSGSTIYYADSVKGRFTISRDNAKNSLYLQMNSLRAEDTAVYYCGREGYSGTYSYYGMDVWGQGTTVTVSS
VL: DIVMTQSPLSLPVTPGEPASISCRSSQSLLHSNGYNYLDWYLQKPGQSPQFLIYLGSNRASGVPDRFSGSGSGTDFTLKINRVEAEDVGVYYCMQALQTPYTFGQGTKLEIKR
notes: CHO supernatant
As for B15, the “% Blocking” value came out at 11%.

B16: 31874B scFv (VK-VH) (scFv)
scFv: DIQMTQSPSSLSASVGDRVTITCRASQGISNYLAWYQQKPGKVPNLLIYAASTLQSGVPSRFSGSGSGTDFTLTISSLQPEDVATYYCQKYNSAPLTFGGGTKVEIKGGGGSGGGGSGGGGSEVQLVESGGGLVQPGGSLRLSCAASGFAFSSYAMTWVRQAPGKGLEWVSVISGTGGSTYYADSVKGRFTISRDNSKNTLYLQMNSLRAEDTAVYYCAKGGAARRMEYFQYWGQGTLVTVSS
notes: CHO supernatant; Vk-3xG4S-Vh
In the case of B16, the “% Blocking” value was -1%.

B17: 31874B scFv (VH-VK) (scFv)
chain: EVQLVESGGGLVQPGGSLRLSCAASGFAFSSYAMTWVRQAPGKGLEWVSVISGTGGSTYYADSVKGRFTISRDNSKNTLYLQMNSLRAEDTAVYYCAKGGAARRMEYFQYWGQGTLVTVSSDIQMTQSPSSLSASVGDRVTITCRASQGISNYLAWYQQKPGKVPNLLIYAASTLQSGVPSRFSGSGSGTDFTLTISSLQPEDVATYYCQKYNSAPLTFGGGTKVEIK
With B17, the “% Blocking” value was 14%.

B18: 69307 scFv (VK-VH) (scFv)
scFv: DIQMTQSPSSVSASVGDRVTITCRASQGISSWLAWYQQKPGKAPKLLIYAASSLQSGVPSRFSGSGSGTDFTLTISSLQPEDFATYYCQKADSLPYAFGQGTKLEIKGGGGSGGGGSGGGGSEVQLVESGGGLVQPGGSLRLSCTASGFTFSNYWMTWVRQAPGKGLEWVANIKEDGSEKEYVDSVKGRFTISRDNAKNSLYLQMNSLRGEDTAVYYCARDGEQLVDYYYYYVMDVWGQGTTVTVSS
notes: CHO supernatant; Vk-3xG4S-Vh
As to B18, the “% Blocking” value was 12%.

B19: 69329 scFv (VK-VH) (scFv)
scFv: B18 scFv with D92N, L94F, A97T, T145A, E181D
notes: CHO supernatant; Vk-3xG4S-Vh
For the molecule B19, the “% Blocking” value stood at 19%.

B20: 31863B scFv (VH-VK) (scFv)
chain: EVQLVESGGGLVQPGGSLRLSCAASGFTFNSYAMTWVRQAPGKGLEWVSFIGGSTGNTYYAGSVKGRFTISSDNSKKTLYLQMNSLRAEDTAVYYCAKGGAARRMEYFQHWGQGTLVTVSSDIQMTQSPSSLSASIGDRVTITCRASQGISNYLAWYQQKPGKVPKLLIYAASTLQSGVPSRFSGSGSGTDFTLTISSLQPEDVATYYCQNHNSVPLTFGGGTKVEIK
Turning to B20, the “% Blocking” value stood at 13%.

B21: 69305 scFv (VH-VK) (scFv)
chain: QVQLVESGGGVVQPGRSLRLSCAASGFTFSSYGMHWVRQAPGKGLEWVAVIWYDGSNKYYADSVKGRFTISRDISKNTLYLQMNSLRAEDTAVYYCAGQLDLFFDYWGQGTLVTVSSDIQMTQSPSSLSASVGDRVTITCRASQSIDRYLNWYRQKPGKAPKLLIYTTSSLQSGVPSRFSGSGSGTDFTLTLSSLQPEDFATYYCQQSYSPPLTFGGGTKVEIK
B21: the “% Blocking” value was found to be 3%.
